± gives the uncertainty stated by the source.

The nature of this data set: amyloid nucleation score (Sup35N fusion, yeast selection) (log enrichment); library NNK2; higher = more nucleation; inactive = no reads after selection. A digest of the protocol: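 Sup35N was fused to peptides of 20 random codons and expressed in psi-negative yeast, which were induced with 100 μM copper sulfate for 24 hours and then grown on medium lacking adenine and uracil for 7 days at 30°C. Plasmid inserts from input and output were sequenced on Illumina. The nucleation score is the DiMSum log enrichment of output over input reads, centred on the mode score of non-aggregating sequences. Sequences with under 100 input reads were left out, and random libraries had three technical output replicates.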
The substance WTTMRLFLDFMYTLDRVGST yielded an amyloid nucleation score of -0.291 ± 1.1.

For the substance KIVGCGHSRMLIMTWC, the amyloid nucleation score is 0.733 ± 0.56.

As for NLSILTICMFLPVDFGI, the amyloid nucleation score turned out to be 6.525 ± 0.059.

Consider QSVNCYNVNSDVCNKVYNDL, for which the amyloid nucleation score amounted to 0.716 ± 0.42.

CSFSYGMYSK returned an amyloid nucleation score of 0.401 ± 0.23.

SLSDYFGEWISA yielded an amyloid nucleation score of -0.422 ± 1.1.

Substance MIWPCMVP had an amyloid nucleation score of -0.237 ± 1.

HSFGRKYFFTF gave an amyloid nucleation score of -0.307 ± 0.55.

On to DGINLDICCCNTDKLNIDRI, for which the amyloid nucleation score entry is “inactive”.

LCMRTFGLHHCPGYG yielded an amyloid nucleation score of 1.2 ± 0.37.

Take LFMKRER: the amyloid nucleation score is -0.179 ± 0.76.

The substance PDDCGWVLMFENQFAAAGTP gave an amyloid nucleation score of 0.122 ± 0.28.

Regarding CAVGDPYCSAMFMMNLWGEK, the amyloid nucleation score is 9.547 ± 0.052.

Turning to FMVACHCCHTSCEYNFGNTV, the amyloid nucleation score was determined as 3.96 ± 0.13.

For the substance KCPRVPNLVS, the amyloid nucleation score is 0.407 ± 0.43.

On to FDVVIGMFVNLITRSKCGEW, for which the amyloid nucleation score worked out at 1.61 ± 0.53.

As for VSDDHFINCFYGQVSQRKVK, the amyloid nucleation score result was “inactive”.

In turn, CHANFNVG displayed an amyloid nucleation score of 1.58 ± 0.19.

In turn, ANVGYFVGW returned an amyloid nucleation score of 0.873 ± 0.31.

In the case of FADTKDEGLYFGLMALLLEV, the amyloid nucleation score was found to be 0.016 ± 0.65.

RLLWLPLHSFMGMDTPSGVY had an amyloid nucleation score of 0.448 ± 0.6.

ARCCFVPEEYSVV had an amyloid nucleation score of 1.22 ± 0.25.

Substance CVLSKEI showed an amyloid nucleation score of 0.387 ± 0.3.

Consider YHCCFRSKAGFQESQDITIR, for which the amyloid nucleation score is -0.18 ± 0.24.

In the case of LALMFLYAALFHAAR, the amyloid nucleation score is 7.139 ± 0.058.

GVSGCANVSCMCADVYPIAP: the amyloid nucleation score came to 9.77 ± 0.045.

Substance SPYLMSTDKIRLSP returned an amyloid nucleation score of 1.16 ± 0.44.

RSKLFVISNGRRMHVVLSST: the amyloid nucleation score stood at 0.605 ± 0.51.

For VALVSGVNNTKDMSRAPNRV, the amyloid nucleation score was -0.19 ± 0.36.

As for YRDVQNN, the amyloid nucleation score entry was “inactive”.

As to RLWYSSSVLLV, the amyloid nucleation score is 0.709 ± 0.36.

In turn, LQMSGTSR came in with an amyloid nucleation score of 0.265 ± 1.1.

In turn, STYLFNSSHPVSVISEAQFS gave an amyloid nucleation score of -0.408 ± 0.79.

In the case of LNAWQKEINDALSPLSYPDS, the amyloid nucleation score was found to be 0.274 ± 1.1.

For RTRLYIDQRRKAFYPGLGFS, the amyloid nucleation score turned out to be 0.347 ± 0.55.

The substance ELVVHFFLFIMGACLHVENQ displayed an amyloid nucleation score of -0.368 ± 1.

KSDQLGCRLVDRGNCFSNRL: the amyloid nucleation score entry is “inactive”.

In the case of WLPNQVKGHLSFRMCSDIRH, the amyloid nucleation score was determined as 4.334 ± 0.035.

SFIWHLPFVC had an amyloid nucleation score of 1.24 ± 0.4.

With EKGVGL, the amyloid nucleation score was -0.449 ± 0.5.

As to CHRKWRYLMEASHRLSHSSW, the amyloid nucleation score entry is “inactive”.

On to FLEFLDTMWW, for which the amyloid nucleation score is -0.233 ± 0.56.

In turn, LCWSYCRVKCGHMFVGVRGS had an amyloid nucleation score of 0.58 ± 0.56.

LNFKWANCVFVDSNCQQ returned an amyloid nucleation score of 3.13 ± 0.17.

GHGFCDNVTSP: the amyloid nucleation score was -1.2 ± 1.1.

Consider NVMFF, for which the amyloid nucleation score amounted to 1.28 ± 0.13.

FGRRYIMLRKYIDVIDLSIH: the amyloid nucleation score was -0.843 ± 0.76.

As for TAGFRILRRHFSIGVGSRTW, the amyloid nucleation score entry was “inactive”.

KYYRQSCQDRPILFDVALYY: the amyloid nucleation score entry is “inactive”.

LGVNYAMNVTSGSQTFMRDG: the amyloid nucleation score was -0.243 ± 1.

YGKIL registered an amyloid nucleation score of -0.956 ± 1.

The substance TDGVLFQLVDSKFV displayed an amyloid nucleation score of -1.25 ± 0.64.

Consider DKSNLARFTSSKWS, for which the amyloid nucleation score was 0.426 ± 0.35.

Turning to YGYCIISHTLNLLLGQYLCY, the amyloid nucleation score was 4.99 ± 0.068.

Substance WLYYDGSFW came in with an amyloid nucleation score of -0.429 ± 0.76.

Substance GAIIDITRFGFLLYF returned an amyloid nucleation score of -0.847 ± 0.34.

Regarding LPLYMTYACPVPTSIHRIIL, the amyloid nucleation score was -0.06 ± 0.28.

In turn, DTVISCLGVG gave an amyloid nucleation score of -0.087 ± 1.

With LSYNVLLGRIEIPWVSFSRM, the amyloid nucleation score stood at 3.94 ± 0.068.

On to YVYTLGI, for which the amyloid nucleation score was -0.337 ± 1.1.

Substance CPIDYGTSVNHDNKVSILYL gave an amyloid nucleation score of 0.534 ± 0.51.

As to LTTMFFIMCHEFNLLAVFNY, the amyloid nucleation score is 1.27 ± 0.26.

In turn, LVNACFCACLRNNSFKCDYY had an amyloid nucleation score of 6.966 ± 0.066.

Consider EIIFVMPVFYIFKTLCLLSA, for which the amyloid nucleation score is 0.332 ± 0.16.

WWNITTEAPIFLIFCFTRQG returned an amyloid nucleation score of 4.8 ± 0.068.

For IRFWSKSGFVQGCSIRISLS, the amyloid nucleation score is 0.02 ± 1.

With HTDSLLWIPRVHFCVFF, the amyloid nucleation score result was “inactive”.

Substance TLEKSFPLEFVV displayed an amyloid nucleation score of 0.204 ± 0.65.

In the case of GRSFFMF, the amyloid nucleation score was found to be 2.5 ± 0.091.

As to SLSRCALL, the amyloid nucleation score is -0.789 ± 0.39.

As to LLRDSVY, the amyloid nucleation score was -0.817 ± 1.1.

AFCKGYIARMRSINAGVGAG came in with an amyloid nucleation score of -0.144 ± 0.36.

For the substance ISAETPMIAFCLVPLNPRSV, the amyloid nucleation score was 1.06 ± 0.68.

For YKEVWY, the amyloid nucleation score was -0.284 ± 0.45.

In the case of PGRRDSHVRAYQEGVVESVS, the amyloid nucleation score came to 0.051 ± 0.49.

PCFRWSRGRKSCECCHVGYM came in with an amyloid nucleation score of 0.122 ± 0.25.

RFSQRNPITVHGQSDTV: the amyloid nucleation score entry was “inactive”.

ERTMF gave an amyloid nucleation score of 0.396 ± 0.3.

For TILKDSTPAVYNVRMRFKAW, the amyloid nucleation score entry was “inactive”.

As to NSRGN, the amyloid nucleation score is -0.293 ± 0.56.

IMMNNMAVIFR yielded an amyloid nucleation score of 6.3 ± 0.083.

With GILYFLFVLSSVGDVCRLLV, the amyloid nucleation score was -0.709 ± 0.63.

Substance LSVLTNDSGLFKFGFIRCVW showed an amyloid nucleation score of -1.21 ± 0.75.

Regarding TIILMGYLFWICRQSVR, the amyloid nucleation score was -0.449 ± 0.38.

Regarding IWGGKDLFGGQDWNTLSYLP, the amyloid nucleation score was -0.283 ± 0.6.

GRTVQIMDRVFS registered an amyloid nucleation score of -1.12 ± 0.76.

As to EILYFSTAFYLSTWEDTIFT, the amyloid nucleation score entry was “inactive”.

Substance MFLRRCSSRVDSKNGHSSKD had an amyloid nucleation score of 0.107 ± 0.39.

Regarding PHNYLYSFFRRIYYRIGCLN, the amyloid nucleation score was -0.461 ± 0.3.

Take LKWQSYG: the amyloid nucleation score turned out to be 0.952 ± 0.28.

Consider VVRMRENKRNIL, for which the amyloid nucleation score result was “inactive”.

RFDSDNTFDPGRWYSCSQDA returned an amyloid nucleation score of -0.346 ± 0.53.

As for FEFSPQSRCTGFLSVVCMVE, the amyloid nucleation score was found to be 0.042 ± 0.5.

The substance YPVTYQLCILICTGYADKWR returned an amyloid nucleation score of -1.26 ± 0.64.

Substance SSWYHFDFGYCECGSNDGFV displayed an amyloid nucleation score of 0.102 ± 0.79.

For ALEVLTTLRISLPSHKGSSF, the amyloid nucleation score is 5.533 ± 0.051.

With KSQLYNYAVSM, the amyloid nucleation score was -1.59 ± 0.64.

As for LHMCHWDSYSE, the amyloid nucleation score amounted to 1.36 ± 0.35.

Substance NIKFHVFDLCDSPHGWLPDR yielded an amyloid nucleation score of 0.224 ± 0.56.

In turn, ETPLTGLRNPSLNQCLMELM displayed an amyloid nucleation score of 0.232 ± 0.5.

For the substance HLDPRAPSVVWTMADGEEDA, the amyloid nucleation score worked out at 0.837 ± 0.22.

SLRFGYNFKFLAMIKFPHIR came in with an amyloid nucleation score of -0.644 ± 0.78.

VSYSGNRYWCSFVNKKAGGN had an amyloid nucleation score of 1.32 ± 0.27.

With KMAIGLCVSTLQ, the amyloid nucleation score was 0.333 ± 0.42.

The substance GTRTISLKGPSGYYA gave an amyloid nucleation score of -0.689 ± 0.41.

In turn, LRFPRWSPADGDSILHTTSQ registered an amyloid nucleation score of 0.673 ± 0.66.

RRHSNRICLQLWNHLGKRCR gave an amyloid nucleation score of 0.587 ± 0.29.

For the substance QNLASIDLDYFFSEYYPLLA, the amyloid nucleation score is -1.37 ± 0.42.

In turn, CNGLAQKIILSTRRLLLVPG returned an amyloid nucleation score of 0.537 ± 0.34.

LNYLCVHTLIACVSWVPVSA showed an amyloid nucleation score of 2.36 ± 0.23.

Consider FSRADTVF, for which the amyloid nucleation score was determined as 2.79 ± 0.13.

On to HGTIFTIYVC, for which the amyloid nucleation score was -0.875 ± 0.42.

For the substance LLLIADYMSLVCCRAGVRDV, the amyloid nucleation score came to 0.215 ± 0.42.

HRVSMKEGVEC came in with an amyloid nucleation score of 0.256 ± 0.31.

With QLNDWSYMVKFSAV, the amyloid nucleation score is -0.466 ± 0.64.

As for WTCDCSLKVFCNM, the amyloid nucleation score came out at 4.91 ± 0.056.

For the substance SPRSAIFSLTTQVF, the amyloid nucleation score worked out at 3.34 ± 0.13.

SVLQTTFVLVVGKTYNTSTD gave an amyloid nucleation score of 2.94 ± 0.072.

In the case of DDIIISPVPDHE, the amyloid nucleation score entry was “inactive”.

Take FIVCALIKEHILTYPGKVFV: the amyloid nucleation score entry is “inactive”.

Regarding TFHGNYFVDTSA, the amyloid nucleation score result was “inactive”.

PMDEWHSFPLQNKLRVIGCG returned an amyloid nucleation score of 0.115 ± 0.23.

As for RIWKWLLTQICFIRAQPLM, the amyloid nucleation score amounted to 0.49 ± 0.31.

The substance GDYWGAGWRRA returned an amyloid nucleation score of 0.184 ± 0.49.

Substance RCLLKLDQV had an amyloid nucleation score of -0.509 ± 0.4.

Consider RSLSNMCN, for which the amyloid nucleation score was -1.24 ± 1.

In turn, VTDRNIRLDPVALKHASVYG registered an amyloid nucleation score of -0.368 ± 0.38.

LFSTYRNFIFVIHSADMCKS displayed an amyloid nucleation score of -0.558 ± 1.

TMHCSSLPQTSLVGTNHNAD came in with an amyloid nucleation score of -0.327 ± 0.28.

In turn, IMWYFIINWHP returned an amyloid nucleation score of 4.79 ± 0.074.

NLLLLTVRKLNAVNMSTPPY showed an amyloid nucleation score of 2.05 ± 0.21.

With WQRRIGKFCDKQWSFQMMVH, the amyloid nucleation score was -0.021 ± 0.63.

Substance SGWELRQITFGMTDCIGG yielded an amyloid nucleation score of -0.328 ± 0.42.

As for KRSCDQVCLLSRLIGQAGEW, the amyloid nucleation score is 2.26 ± 0.1.

For RVYPFGRTRIFKTM, the amyloid nucleation score amounted to 1.33 ± 0.15.

Substance FLRIVSNVLKWQRA came in with an amyloid nucleation score of 2.83 ± 0.069.

Consider CHGNGQLK, for which the amyloid nucleation score result was “inactive”.

In the case of VGVLSEDIYCSAQPYLGRSG, the amyloid nucleation score was 0.331 ± 0.4.

On to YGSFWTFRFLGT, for which the amyloid nucleation score stood at 4.12 ± 0.073.

QSMMSFMSRNVFRFFMGKVT: the amyloid nucleation score result was “inactive”.

Turning to IIALKMVVLIKCIKVY, the amyloid nucleation score entry was “inactive”.
